Assay: label from the status in PepcDB records

MIKIAVIAGGSFDCLPEPADLYVGVDAGSLRLLDHSLPLDWAIGDFDSVTSEELGQIREMAEQFLQAPAEKDDTDLELALKEIFKAYPQAQVRIYGALGGRMDHMMSNLFLVAEPDLAAYMEQIELVDSQNVVRFRPAGSHRISPIAGMKYISFMPSDQSHLTIRYAKYPLDASNYFFKKCYASNEFIDRDIDIQLDQGYVVLIYSKDKD
protein production: failed

LFTHRPIHTHTVTFSGGGENSAMYASIGFYDDRGWTLADHVKRITANIKNSFYWNEDKIKATISAQGNLRNQNSPGTIPQRRNTVIGTFERDFDINPFSYALSTSRTLRPHNADGKREFYRNNWAPFNILNEYENNYLKTEVLDLKLQGELSYRLNDHIEVKGLAMVRHAVTKSSHFIAEASNVVQAFRANETPYVARENIYLLKNKDDPMQLPGVALTHGGIFNKTETSLRSYLGRLALDYNRQLSEHNIRAFGFTEIRYADRSMNPFQGYGIQYDRGNQVFSNPLIFEKLANEGDTYFSLTERYERGVTLSGSATYGYAEKYIFNGVFNYEGANTAGKYSRSRWLPTWNIGAKWNLDQEKFMRKHTTISRLALRTSYGLTAKMNEQAVNSTTVFKHVMVNRTLLKDRENALRILHLENRDLTWEKMYELNFGLELGLFGNRISATFDVYQRNSFDLIDLIRTSGVGGQYYKYANFGDMRTRGVELAIQTQNILTDKFSWSTTVT
protein production: failed

MTREIIPILPEAPVETARSGNALPLLREIAEHLHHLLETGEASTIDLSALPLTPGDLEWLRAELGGGEVSVTLHADGASTLDETAFPGVWWIIHRNAQGAVTTQFIEVAFVPELVKSPRADVAAARAALVLRMADL
protein production: not failed

MLISAIIGGVEYINLYRFPEIPLVGFTLIGVVLSIFLGFKNTACYDRWWEARKLWGVLIATSRHFDRDCRILTQARRERVIQHVIVFANVLRDRLRRQTANPTELIQTSGMSQQALTQLYQQNNAPQYTLSLIQWELLQALKEGEISDIIYAQMNKNVADLSVVQTGCDRIANTPIPFAYSVLLNRTVYFFCFMLPFSLGSLLGLATPLLVGILAYTFLGLDALSTEIEEPFGTQSNDLPLDAMVRSIEIELLGTLGKPTPPPIQAQDNNLL
protein production: failed

MKALMVFMTTAENGSFSDAARKLGVSPAAISQSIARLEQELEVRLFNRTTRQLTLTEDGRRFYAQCRGPVNNLDSAINQLKASRDEPAGHLRVSMPNSFGRRFILPIMGEFCERYPKVRVFFGLDDHFSDLIEDGYDVGVRTGMMPDSRMVARNLAQMPLYVVASPEYWDQHGRPSSPEELSGYDCINFQFPTSGRLFKWEFDRKGERIPLEVNGTYTLNDMEAVAELARLGMGVAQLPGHEVVHLIRSGELEPVLTDMVSLERSIYICFPHRDHIAPRTRVFVDFVVEKLADHPDIMADLPGLDLSAKRSALQQSVGVL
protein production: failed

MEWLFWFDARDYEFARQVLQRGTAVLYAVAFLSTLNQFPALLGERGLLPVPAFLDMARRLARPTLFRWRYSDALLKAVCWTGIGVSVLLVMGLPQTGPPWLPMLAFLTLWFLYMSIVNVGQTFYGFGWEILLLEAGFTVAFLGSNQCPPPTTILVLIVWLVFRLEFGAGMIKIRGGREWRDMTAMFYHHETQPMPGPLSRQAHLLPRPLHKVEVVGNHFAQLVVPFFLFAPQPLASIAAGIIIATQLWLVGTGNFAWLNWVAIVLAFAAVSDPVAHAVFPFIPLEWHQSTETPVWWLAVVVLVTVLLLVFSYQPLLNLFSSRQLMNASFNRWRLVNAYGAFGTVTKQRIEIVVEGTLDDAPDAPDERWLEYGFKGKPGDVRRLPRQWAPYHLRLDWLMWFLPLRTVHEDWFYIFLDRLLEADRRTLGLLRVDPFDGERPRWVRARSYLYRFASRAEFRETGERWVRVLLYDAIPPVSLSPRRRRLP
protein production: failed

MALTEEEKSINIVDLFIYLIAHWKWFVLSILLFGGYFWYSYCETPFVYSRTAIVMIKTPANSRSAMQLNNADFIGQVNVASEILQFKSKELMRKVIDRLHADVSYMVRDGLRPRELYTDSPVRVAFLEAGLDEVCSLSVIPKNKQQVELADFSLDELEQRKTVNLNDTVDTPLGKLIVFTAENYSESYFDRPIKVTSKSREGMVAFWLSNLTIRQMSGDAALLSMTMNDLSPTRAADILDMLITVYNEEAIKDKNRISVNTAEFIKERLQIIEHELGSVETDIEDLKRANNGVDINTVAGMYIQDSRQYESSIKELDTQLQLVSFIKQYLQDSNKDDELIPSNIGLSDLSIESQISRYNETLLRRNRLVSGSSSNNPVVQELNRIMQTMKQNIYMAVDNLSKSLRLKKQDYMRQESHVRQKVQAVPGKQREMLSIERQQKVKESLYIFLLNKREENALSQAMVDNNARILDPVSGSNLPISPNKYKKMILGVGCGIIVPSVILLLILMLDTRVHNRKEVEAVVSAPFLADIPQTAKASVDAHEVVVRARGLDPLSEAFRILRTNLGFMLSQAQDHKIITLTSFNIGAGKTFVSVNLAASLVQTKKKVLILDLDLRKGKMSEMAHSKHVKGVAHYLSNPSIVVDDLILRDAFGEGLDLIPIGVIAPNPTELLLSRRLDELMDRLRELYDYIIVDNVPIGLVADASVVNRISDLTLFIVRVGKIDRRQLPELERLYQEHKLTNMAVVLNGTKKGSSGYGYGYGYGQGYGYKNAEKKKGLFGRKKKKSRK
protein production: failed

MASSFLEEVDRLITLSGITFHASGTGTPELIKIYQDALGNEFPETYKLFLEKYGTLTFNGVSFYGISKRGLSAASIPDVKFATEQARTFGDINKEMIMIKNSGYGSIFSIDTSIIGSEGEPVIVETNLSFKDNTEKKVVANSFGEFLLEEIELSLTDLG
protein production: not failed

MTTLSTKQKQFLKGLAHHLNPVVMLGGNGLTEGVLAEIENALNHHELIKVKVAGADRETKQLIINAIVRETKAAQVQTIGHILVLYRPSEEAKIQLPRK
protein production: not failed

MLLTIIYIIAITAEAMTGALSAGRRSMDWFGVILIACVTALGGGSVRDVLLGHYPLTWVKHPEYLVLTCCAALFTILIAKWMRHLRNIFLILDALGLIGFTIIGCQIALQMGHGFVVSAVAGVLTGVSGGILRDILCNDVPLVFRRELYASISFVAVICYWLCLNIGMSLELTVIFTLIFGFVLRLIAIYFGLEMPKFIYQEDDADSASSTDKH
protein production: failed

MADAPIDIFQSILSRKSIRAFTDQPVTQETIREILKLAARAPSGTNLQPWQVIVLTGKILQKVGQELSQLVLSGIKGEREYHYYPRQWREPYLSRRRKVGLDLYKSLGIQKGDQEKMLHQKAKNFLFYGAPVGLLFTIDHDMEMGSWLDLGMFMQTIMLAARGFGLDTCAQAAFADYHKQIRSLLSVPSDRHIICGMALGYRDMNAPENNFETEREPIDNFVHFIKSYP
protein production: not failed

MKRSLLACAMSCMMLTVSAHSDFDVRNVDSQFHVPEIGGGVGLIDQQKERQIGEKVFREIQKQMPVVHDPWLQEQYSQIFLRVLAQTSITQPVGLVIIKDPQINAFAVPGGLFALNTGLIANARNIDEVAGVMAHEVAHVTQRHYSRSQEAFKGQGLLALAGILVGAAVATTSNADVGSAVMLGTQAALMDRQLTYSRNQEREADRIGMQYMYAAGYNPQSMADFFETMQRSRVGSSFMPDFWMTHPLTTERMSEARLRANQLPKVETKLYDPNFQLLKWYTLAVSDPSSEKILENVVKQGNKEAQLALGAYYVGQGDFVKAQKQLDDIKSQFNENTLYCLIQTNIYLGQNELDQAYSSIVNIQRAMPESRALAYKLAEVMILQGKAGDTLQLIQPFVNRNPRDLEGWQLMQQASSIDRISPVQTVNTLRYRAEVQFWSGNEENAIKSLLHAQRLAKGNESLSARIDSRLKQMQSDYTMKI
protein production: failed

MVIGSGVFLTRTCYLRLQPPSLVLRRRFCAATTACSVPLNGNKKKKSEKEKVIVISGPTGAGKSRLAMELAKRLNGEIISADSVQVYKGLDVGSAKPSDSDRKVVPHHLIDILHPSQDYSVGQFYDDGRQATKDILNRGRVPIVTGGTGLYLRWFMYGKPDVPKPSPEVIAEAHDMLVGFQTEYNWDAAVELVVNAGDPKASSLPRNDWYRLRRSLEILKSTGSPPSSFRIPYDSFRVNLVAPDADDFLEDGSSADISIQNIETDLDYDFLCFFLSSPRVALYRSIDFRCEDMLSGPNGVLSEARWLLDLGLLPNSNPATRAIGYRQAMEYLLQCRRYEGESSPREFYAFLNKFQTASRNFAKRQMTWFRCEPMYHWLNASKPLDSILQCIYDAYESEAEMVEIPESLRMSKDVRDSREASELKGYRSKNRHFVRREDCSSVLEWIRSEGCKSEASCVESAIA
protein production: failed

MPWQQQPIRYSADLEKPSPREQADIEKIMAKLLKNNERAYDKYKHGLRDAHAKSHAILRGELIVNEGLPPELAQGLFAEPRTYPVIARLSSTSGVRRSDKTRGVRGLGLKVLGVQGEKILPDDSSTNQDFVMVTHEDFLFADAHAYAGLGMITASLLARLSDQALWLGSGLLDLVSKAGIKLPDNLMVFVAPNRPILGLEFFSSAPFRHGDHVAKYRFAPASENVKALSGQLLPRNPAPEQHRDMIAEFFADQTAEFDFSAQLCTDPVAMPIEDAGKNWDKSISPYVSVAKIVFGPQNPYSALRRAYGDDVLAFNSWRGLAEHRPLGSINRLKKTVYESSADYRHRVNRIDRHEPLEHHHHHH
protein production: failed

MIIIKNGALVTPQGLRRADLAMEGDKIVRIAAAIEPGEDDTVQDATDCWVFPGFIDGHTHMQCWTGMDWTADSFETGTRAAVCGGTTTIVDYATADRGVTMPDALVEWHHRADGTCTANYAFHMALAEWNERNRADLSAMREAGVSSFKTYFAYDHLRLDDAETLEVLEELKRVGGILCVHCENGTLVNALQKRVFEQGIHGPEGHALSRPDVCEGEAVSRLLYLAHLAGDAPVNVVHLSTKLGLEAIRAAKARGQKNIYVETCPQYLMLDDTCYLEQGEDGFAGAKYVMSPPLRHAGDRAALREALVAGEIDTIATDHCSFNLHGQKDRGRDDFRAIPNGGPGVEHRPVAIATSFEGQLGPEDLCRLMSENPARVFGMYPRKGCLAEGADADVCVWDPQARWTIRAATQHQAVDYTPLEGFEAHGRAKAVFVNGVLAARDGEPTGAQPGRYVPR
protein production: failed

MFEENEKEQLLYYERNKESEKCQKVWESIICKGLGYSKEEIRRDVERSRREKERLLSILYGSVFTGPKYLLYSKKWRGKTLNEIINEDREKNLNKNNFKNMDLDSTYFCELSFGYMDTAEENDDKNKKEITKQMEKKNDKVPNIRKGGNTNNSQNKRKTYHGEKNANTTNKDLDEFYSKLNYLEKRSYKNRYRNDNNNKKNNNNNNNNNNSNSNNNYYYYYSNGRSSYTNELSNEKNKYNEENSDEGNVIKYKYLPTGVFYSRVSKSFIANWIDDKTKKQVKIPYKISEYGIEKCMILAILSRNLRLSNLSNVLKYYDELTDSQKEQMLHAIRTTQKSEKLFEDIINRNGNKKNENNIINNYSNIHNDTSINNNNNNNNNNNNNIGNTIGTQHKNKNKQNANDQKNIPMKKKLIEKKKVKQSYVNEEKLPTGVYFYQGSYVANWWETNQKKQFKVPFKISEYGIARAKNLAIISRLIRSSSIPDINLILTQMENDHNLSDMDYTAISELAYKYIENMAKKE
protein production: failed

MADAPDTERQAVEPEAGDVLSVSQLNDRIASVVEDAPALDGVRCIGEVTDLHQNSTALYFTLTDGDAELPCMIWANRYRKMDAELEDGTEVILEGDIDYWTEGGKIDLKPWEVIVVGDGDQAAAVERLRSELEERGWFDDEQKQRPPAFPERVGVVTSLRGDARYDIQSAIHEQDPTVDILVKDATVQGSEAPTSIANGIHHLDRSEDVDSIIVGRGGGSDSNLQAFNTERVAEAIFTANTPIVTAIGHTDDRLIADRVADMAAITPTAAGEYIAKSRNDFLASDIGPLEQQLEAAYETFEQEHEHEQELAEAVEEATAPEGLSPVYYKVAIVVLLVLLLLITALWLGVI
protein production: failed
